Measured values as given in paper PMC2931317.

Biological target: T1, DIP1-c (Disconnected Interacting Protein 1, longest isoform) (Drosophila melanogaster, UniProt C6TP62 1-410)
T1 sequence: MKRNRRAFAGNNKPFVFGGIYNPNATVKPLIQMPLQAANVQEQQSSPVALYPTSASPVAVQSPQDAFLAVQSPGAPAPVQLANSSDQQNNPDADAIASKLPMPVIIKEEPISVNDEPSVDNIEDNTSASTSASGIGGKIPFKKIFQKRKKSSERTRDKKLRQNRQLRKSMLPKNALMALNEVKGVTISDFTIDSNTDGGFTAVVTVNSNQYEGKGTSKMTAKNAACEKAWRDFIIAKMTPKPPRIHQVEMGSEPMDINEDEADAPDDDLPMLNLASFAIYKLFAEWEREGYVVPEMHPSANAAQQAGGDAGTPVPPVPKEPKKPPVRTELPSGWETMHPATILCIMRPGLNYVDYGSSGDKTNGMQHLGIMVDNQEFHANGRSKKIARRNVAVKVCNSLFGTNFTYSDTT
Assay: EMSA

B1: dsDNA40 (dsDNA)
DNA 1: CCGGGCTGCACATGGTTAATGGCCAGTCCACGCGTAGATC
DNA 2: GATCTACGCGTGGACTGGCCATTAACCATGTGCAGCCCGG
Which Kd does the source give for B1 here?
Its Kd is 26 ± 8 nM.
